Key:
[1] = target: T1, IsaB (recombinant, untagged) (Staphylococcus aureus 10833) (UniProt Q9LAB5); assay: SPR; details: EMSA: 20 mM HEPES, 1 mM DTT, 20 mM KCl, 200 ug/ml BSA, 10% glycerol, room temperature, 10 min, SPR: 0.33x HBS-EP + non-specific binding inhibitor, SA chip …
T1 sequence: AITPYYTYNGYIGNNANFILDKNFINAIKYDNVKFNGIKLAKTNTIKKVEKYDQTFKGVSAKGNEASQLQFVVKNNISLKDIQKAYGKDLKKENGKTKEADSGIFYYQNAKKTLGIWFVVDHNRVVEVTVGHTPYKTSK

[2] = target: T2, IsaB (recombinant, untagged) (Staphylococcus aureus 10833, UniProt Q9LAB5 37-175); assay: EMSA; 240 pmol-3.84 nmol IsaB; shift abolished by salmon sperm DNA or yeast tRNA, not by dNTPs; EMSA: 20 mM HEPES, 1 mM DTT, 20 mM KCl, 200 ug/ml BSA, 10% glycerol, room temperature, 10 min; SPR: 0.33x HBS-EP + non-specific binding inhibitor, SA chip, Biacore T100; pull-down: 10 mM HEPES, 60 mM KCl, 4 mM MgCl2, 0.1 mM EDTA, 0.1 mg/ml BSA, 0.25 mM DTT, on ice; pH not stated; details: protein: recombinant; label: Alexa Fluor 594 (ULYSIS)
T2 sequence: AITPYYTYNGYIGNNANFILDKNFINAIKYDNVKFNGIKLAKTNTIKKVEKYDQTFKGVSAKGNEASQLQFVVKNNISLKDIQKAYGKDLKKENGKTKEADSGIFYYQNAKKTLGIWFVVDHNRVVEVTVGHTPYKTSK

Molecule | Kd (M (unit not given)) [1] | other results
TNGUGCAAUUACAAAUAUUUCCGUUUAAUUAUAACAACAAUCUAUUGCA [WTUTR(RNA) (RNA SPR bait; identity inferred)] | – | Kd (M (unit not given)) ([1]; ribonucleotides with 3' terminal deoxy GCA): 1.65e-08
ATTGVGTTATCAATAATCTTA / GGTGGGATCCTTGAAGGATAAGATTA | 8.1e-09 | –
ATTGVGTTATCAATAATCTTA [BioticaPRO (ssDNA SPR bait; identity inferred)] | 1.08e-08 | –
GUUUAAUUAUAACAACAAUCUAUUGCA (ssRNA) [icaUTR6] | – | binding result [2]: binds

Reference: paper PMC2670837, “Staphylococcus aureus immunodominant surface antigen B is a cell-surface associated nucleic acid binding protein”
